Test results as given in patent publication US8318172B2, “Breaking immunological tolerance with a genetically encoded unnatural amino acid” (The Scripps Research Institute, priority 2008, dated 2012).
Where a chain is given by its changes, count along the chain named.

Tests used:
WT mTNFα [1] = biological target: T1, WT mTNFα (Mus musculus, UniProt P06804); assay type: in vivo, mice
T1 construct: ELISAs were measured against WT mTNFα aa 1-156; His6 tag followed by factor Xa cleavage site (N, cleaved yes); made in house; host or cells: E. coli BL21(DE3)
T1 sequence (P06804 80-235): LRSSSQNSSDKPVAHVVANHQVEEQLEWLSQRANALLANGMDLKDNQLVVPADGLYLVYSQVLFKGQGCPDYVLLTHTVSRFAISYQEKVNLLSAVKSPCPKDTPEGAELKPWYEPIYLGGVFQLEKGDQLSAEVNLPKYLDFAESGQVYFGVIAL
Description: (§1) The plates were washed with PBST between incubations.
(§2) 30 μl of 0.5 μg/ml protein was used to coat the wells of Maxisorp 384-well plates (Nunc, Rochester, N.Y.) overnight at 4° C. After washing with PBS+0.05% Tween 20 (PBST), the coated plates were blocked with 80 μl of 1% BSA in PBS, and washed again with PBST. The plates were sequentially incubated with 20 μl of primary antibody or serum diluted in 1% BSA in PBS, 20 μl of HRP-conjugated goat anti-mouse IgG or anti-mouse IgM (Jackson ImmunoResearch Laboratories, West Grove, Pa.), and 20 μl of TMB substrate (KPL, Gaithersburg, Md.), and read at an absorbance of 650 nm. Between incubations, the plates were washed at least six times with PBST.

[2] = test system: CD4+ T cells from immunized mice; test: T cell proliferation assay; assay type: cell-based; settings: Bcl-2 mice, stimulated in vitro with pNO2Phe^86 mTNFα
Description: For mice immunized without adjuvant, the RIMMS protocol involved 8 injections (5 μg protein/injection) over a period of 17 days. For mice immunized with adjuvant, CFA was used for the first injection and IFA for the remaining 7 injections. […] To perform the T-cell proliferation assays, CD4^+ T cells from immunized mice were isolated from lymph nodes by magnetic depletion with MACS beads (Miltenyi Biotec). T cells were then placed into culture with irradiated splenocytes from naïve Bcl-2 mice and increasing amounts of antigen. The cultures were incubated for 48 h and then pulsed with [^3H]thymidine overnight. The culture plates were harvested onto filter mats and radioactivity was quantified with a TopCount scintillation counter (PerkinElmer).
Isolation of CD4^+ T cells from the lymph nodes of immunized C57BL/6 mice was carried out by magnetic depletion with MACS beads (Miltenyi Biotec, Auburn, Calif.). T cells were then placed into culture with irradiated splenocytes from naïve C57BL/6 mice and increasing amounts of antigen. Following incubation for 48 h, the cultures were incubated with ^3H-thymidine overnight. After harvesting the culture plates onto filter mats, radioactivity was quantified with a TopCount scintillation counter (PerkinElmer, Boston, Mass.).

WT mTNFα [3] = assay type: in vivo, mice; settings: C57BL/6 mice, 8 injections of 5 μg over 17 days, CFA/IFA, serum diluted 1/1000
Description: as §1, §2

[4] = test system: NFκB pathway in HEK293 cells stably expressing NFκB-Luc; settings: NF-κB-luciferase activity analysis of mTNFα variants
Description: The biological activities of the proteins were assayed by measuring the mTNFα-induced activation of NFκB pathway in a NFκB-luciferase reporter cell line. […] The stable cells were dissociated with trypsin, resuspended in DMEM containing 10% FBS at 5×10^5 cells/ml, and plated at 20 μl/well in 384-well white plate (Greiner, Longwood, Fla.). After 2 hours incubation at 5% CO2 in a 37° C. tissue culture incubator, 20 μl of TNFα was added to the cells. The cells were continuously incubated for 24 hours. Luciferase activities were measured by addition of 20 μl Bright-Glo (Promega, Madison, Wis.), and the plate was read using a luminescence plate reader.
The activity of pNO2Phe mTNFα mutants was determined by an NFκB-luciferase reporter gene assay using HEK293 cells stably expressing NFκB-luciferase as described previously (Grunewald, J. et al. (2008) “Immunochemical termination of self-tolerance.” Proc Natl Acad Sci USA 105: 11276-11280).

[5] = test system: C57BL/6 mice, lipopolysaccharide (LPS) challenge; test: LPS challenge in TNFα-dependent severe endotoxemia mouse model; assay type: in vivo

B1: Phe^86 mTNFα: Tyr^86 Phe mutant of mTNFα, control without NO2 group (protein)
chain: T1 sequence (P06804 80-235) with Y86F
With B1 the anti-TNFα titers (WT mTNFα [1]; Bcl2 mice, presence or absence of CFA/IFA) was “no significant anti-TNFα titers” and the “CD4+ T cells specific for pNO2Phe^86 mTNFα elicited by immunization” value [2] was “not when mice were immunized”.

B2: WT mTNFα: wild-type murine tumor necrosis factor-α expressed in E. coli (protein)
chain: MSTESMIRDVELAEEALPQKMGGFQNSRRCLCLSLFSFLLVAGATTLFCLLNFGVIGPQRDEKFPNGLPLISSMAQTLTLRSSSQNSSDKPVAHVVANHQVEEQLEWLSQRANALLANGMDLKDNQLVVPADGLYLVYSQVLFKGQGCPDYVLLTHTVSRFAISYQEKVNLLSAVKSPCPKDTPEGAELKPWYEPIYLGGVFQLEKGDQLSAEVNLPKYLDFAESGQVYFGVIAL
With B2 the “sustaining titers of cross-reactive anti-mTNFα antibodies” value (WT mTNFα [1]; one injection of pNO2Phe^86 mTNFα in CFA, then 7 injections in IFA) was “cannot sustain significant titers”, the “serum IgG titers against pNO2Phe^86 mTNFα and WT mTNFα” value (WT mTNFα [3]) was “insignificant serum IgG titers” and the EC50 [4] was 0.216 nM. The “CD4+ T cells specific for pNO2Phe^86 mTNFα elicited by immunization” value [2] was “not when mice were immunized”, the survival rate ([5]; active immunization, C57BL/6 mice, LPS 8.5 mg/kg i.p.) was 12.5% and the survival rate ([5]; passive: pooled serum (100 uL) or purified IgG (4 mg/kg) from immunized Bcl-2 mice, LPS 7.5 mg/kg) was 16.7-25.0%.
